B1: Cathepsin K: recombinant Cathepsin K (Calbiochem Cat. No. 342001) (protein, UniProt P43235 115-329, looked up)
Cathepsin K: APDSVDYRKKGYVTPVKNQGQCGSCWAFSSVGALEGQLKKKTGKLLNLSPQNLVDCVSENDGCGGGYMTNAFQYVQKNRGIDSEDAYPYVGQEESCMYNPTGKAAKCRGYREIPEGNEKALKRAVARVGPVSVAIDASLTSFQFYSKGVYYDESCNSDNLNHAVLAVGYGIQKGNKHWIIKNSWGENWGNKGYILMARNKNNACGIANLASFPKM
B2: recombinant mouse Cathepsin L: recombinant mouse Cathepsin L enzyme (R&D Systems, # 1515-CY-010) (protein)
chain: TPKFDQTFSAEWHQWKSTHRRLYGTNEEEWRRAIWEKNMRMIQLHNGEYSNGQHGFSMEMNAFGDMTNEEFRQVVNGYRHQKHKKGRLFQEPLMLKIPKSVDWREKGCVTPVKNQGQCGSCWAFSASGCLEGQMFLKTGKLISLSEQNLVDCSHAQGNQGCNGGLMDFAFQYIKENGGLDSEESYPYEAKDGSCKYRAEFAVANDTGFVDIPQQEKALMKAVATVGPISVAMDASHPSLQFYSSGIYYEPNCSSKNLDHGVLLVGYGYEGTDSNKNKYWLVKNSWGSEWGMEGYIKIAKDRDNHCGLATAASYPVVN

Test system: rH3-HIS
Assay: H3 cleavage assay with recombinant cathepsins
Type: biochemical, mouse
Experimental: Extracts were incubated in buffer (10 mM HEPES, 10 mM KCl, 1.5 mM MgCl2, 0.34M sucrose, 10% glycerol, 5 mM β-mercaptoethanol, all final) with 0.1 μg/μl rH3-HIS (purified from E. coli) and incubated at 37° C. for 1-3 hours. Reactions were stopped by addition of 5×SDS sample buffer and boiling; results were analyzed by immunoblotting with HIS-HRP and/or H3.cs1 antibody. For MS analysis, reactions were quenched by addition of 0.1% (final) TFA. rCathepsin L (R&D Systems, # 1515-CY-010), rCathepsin B (R&D Systems Cat No. BAF965), and rCathepsin K (Calbiochem Cat. No. 342001) were purchased from commercial sources and tested in the assay with rH3-HIS.
To further validate the identification of Cathepsin L as an H3 protease, recombinant mouse Cathepsin L enzyme was tested in the H3 cleavage assay (FIG. 5). […] To further characterize the sites of proteolytic cleavage, the reaction products of rCathepsin L and rH3-HIS were analyzed by MS. […] Also observed in both reactions were five of the six complementary N-terminal peptides generated by rCathepsin L cleavage of H3 (left), and their abundances correlated, as expected, with that of their C-terminal counterparts. […] In addition, the relative abundances of the in vivo H3 cleavage sites and those produced by Cathepsin L in vitro are highly correlative. […] Taken together, the above data support the conclusion that Cathepsin L is capable of generating all of the histone H3.2 fragments observed at day three following induction of ESC differentiation by retinoic acid.
Other cathepsin family members were then tested in the H3 cleavage assay. rCathepsin B, one of the most abundant lysosomal proteases, and rCathepsin K, which is reported to have a significant preference for leucine in the P2 position of its substrates much like Cathepsin L, were chosen to be tested first (Cathepsin S also shares this preference but was not found to have significant expression in our ESC model). Following pre-activation the recombinant enzymes, Cathepsins B, K, and L were incubated with rH3-HIS at both pH 5.5. and pH 7.5, and the reactions were then analyzed by immunoblotting with both HIS and H3.cs1 antibodies.

[1] = pre-activated enzymes, pH 5.5 and pH 7.5

| Molecule | H3.cs1 epitope production [1] | cleavage of recombinant histone H3 (pH 5.5 and pH 7.4) | generation of epitope recognized by H3.cs1 antibody (pH 5.5 and pH 7.4) | rH3-HIS cleavage pattern [1] |
| --- | --- | --- | --- | --- |
| B1 | less abundant |  |  |  |
| B2 |  | able to cleave recombinant histone H3 | created the specific epitope | cleaves rH3-HIS robustly |

Source: patent US20110312897A1, “CATHEPSIN L PROTEOLYTICALLY PROCESSES HISTONE H3 DURING MOUSE EMBRYONIC STEM CELL DIFFERENTIATION” (THE ROCKEFELLER UNIVERSITY, priority 2008, published 2011)
